The nature of data set [1]: Maximum water solubility of TEEE. Format: physicochemical. On the procedure:
The compound described is a selective IL-23 receptor antagonist peptide comprising D-amino acids with the formula cyclo-D-[…] (SEQ ID NO: 3), where any amino acid is a D-amino acid, MW: ca. 1039, hereafter designated TEEE, supplied by Allostera Pharma as a dry powder, and is formulated for intravenous at 0.02 and 0.2 mg/mL in sterile saline by dilution of an initial stock prepared at 2 mg/mL. Additionally, 4 different formulations of dry TEEE are prepared in gelatin capsules. For each type of dry formulation 10 capsules are prepared to contain enough test article in a way to deliver ca 2.5, 5.0 or 10 mg/kg. […] Solutions and capsules are stored at ca 4° C. upon until dose administration. The intravenous formulation is kept at room temperature pending dose administration. The final appearance of the intravenous formulations consists of clear solutions.

The nature of data set [2]: Clinical signs during the TEEE pharmacokinetic study. The data set is classed as in vivo, Male Sprague-Dawley rats. The settings on record: oral (2.5-10 mg/kg capsules) or intravenous (0.1, 1 mg/kg) administration, rats. The source says:
Male Sprague-Dawley rats are ca 8-9 week old at onset of treatment (weight at onset of treatment, 348-398 g). Animals are allocated into groups of 3 rats/group. Immediately following arrival, animals are uniquely identified via an eartag. Animals are purchased from Charles River Canada (St-Constant, Canada). Following an examination by a qualified In-Life Specialist (including body weight determination), animals are acclimated to the testing facilities for ca 72 hr prior to test article administration. Room conditions are: temperature ca 20° C., humidity ca 50%. Animals are housed in solid bottom polycarbonate cages equipped with a filter top to avoid contamination, fed with standard certified rodent food (brand and lot no. to be documented in the raw data). The animals had continuous access to RO/UV water, via bottles. All rats are administered the compounds intravenously (Groups 1 and 2) in a jugular vein under light isoflurane anesthesia or orally by capsule (one per animal) using a specially designed capsule delivery tube (Groups 3-14). The dose volume is 5.0 ml/kg for groups 1 and 2 and one capsule/animal for Groups 3 to 14. Prior to dosing, each animal is weighed and the weight recorded. […] Plasma concentrations of each compound are determined using an LCMS assay (non-GLP) with an analytical range of ca 25-1000 ng/mL. […]

The target in data set [3] is somatostatin receptor (SSTR) subtype 2 (Homo sapiens, UniProt P30874). Particulars: cited from earlier work.
Sequence of somatostatin receptor (SSTR) subtype 2 (P30874 whole entry): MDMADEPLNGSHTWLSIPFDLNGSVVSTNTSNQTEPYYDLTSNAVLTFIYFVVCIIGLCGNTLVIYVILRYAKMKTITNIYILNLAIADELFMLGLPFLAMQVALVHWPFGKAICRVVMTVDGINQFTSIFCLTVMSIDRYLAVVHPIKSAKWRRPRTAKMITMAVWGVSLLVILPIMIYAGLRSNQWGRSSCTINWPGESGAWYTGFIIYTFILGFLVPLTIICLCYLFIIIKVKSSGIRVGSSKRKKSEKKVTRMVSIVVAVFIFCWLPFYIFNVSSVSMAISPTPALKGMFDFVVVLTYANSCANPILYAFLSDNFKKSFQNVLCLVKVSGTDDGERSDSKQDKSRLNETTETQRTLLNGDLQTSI
The conditions of data set [4]: intranasal delivery; cited from earlier work.

Positions of bridges follow the written chain, without caps; N, C: chain ends. Non-standard residues stand in square brackets, D forms with d. Residues, ends and D or L forms follow the SMILES beside them. d2Nal = N[C@H](Cc1ccc2ccccc2c1)C(=O)O

We go through three molecules from patent US20130034597A1, “ORALLY BIOAVAILABLE PEPTIDE DRUG COMPOSITIONS AND METHODS THEREOF” (AEGIS THERAPEUTICS LLC, priority 2011, published 2013).

Turning to “cyclo-D-TEEEQQYL (cyclo([dT][dE][dE][dE][dQ][dQ][dY][dL]); SMILES CC(C)C[C@H]1NC(=O)[C@@H](Cc2ccc(O)cc2)NC(=O)[C@@H](CCC(N)=O)NC(=O)[C@@H](CCC(N)=O)NC(=O)[C@@H](CCC(=O)O)NC(=O)[C@@H](CCC(=O)O)NC(=O)[C@@H](CCC(=O)O)NC(=O)[C@@H]([C@H](C)O)NC1=O)”, the maximum water solubility result in data set [1] is reported as “approximately 10 mg/mL”. Besides, the clinical signs entry in data set [2] is “No clinical signs”. As to `CC(C)[C@@H]1NC(=O)[C@H](CCCCN)NC(=O)[C@@H](Cc2c[nH]c3ccccc23)NC(=O)[C@H](Cc2ccc(O)cc2)NC(=O)[C@H](NC(=O)[C@H](N)Cc2ccc3ccccc3c2)CSSC[C@H](C(=O)N[C@H](C(N)=O)[C@@H](C)O)NC1=O` [lanreotide, (4S,7S,10S,13R,16S,19S)-10-(4-aminobutyl)-19-[[(2R)-2-amino-3-naphthalen-2-yl-propanoyl]amino]-N-[(1S,2R)-1-carbamoyl-2-hydroxy-propyl]-16-[(4-hydroxyphenyl)methyl]-13-(1H-indol-3-ylmethyl)-6,9,12,15,18-pentaoxo-7-propan-2-yl-1,2-dithia-5,8,11,14,17-pentazacycloicosane-4-carboxamide] (H-[d2Nal][dC]Y[dW]KV[dC]T-NH2; disulfide 2-7), the binding affinity result in data set [3] is “high”. calcitonin: the average bioavailability result in data set [4] was “about 3%”.
